# Test results reported in the nanobody polyreactivity screen of Harvey et al. (2022).
# Assay: yeast display, Sf9 membrane polyspecificity reagent, FACS + sequencing; frameworks hold sequencing errors
# Procedure, shortened: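 Using colony PCR, genes from sorted yeast display clones were amplified, then sequenced on MiSeq at 2 × 250 and filtered by CDR length. The clones had been stained with 10% biotinylated, detergent-solubilized Sf9 membrane reagent for 1 hour at 4 °C and sorted by FACS into low and high (top ~1%) gates on anti-HA and streptavidin fluorescence. Polyreactivity labels come from the gate of origin.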
row,Sequence,polyreactivity (PSR sort gate)
1,QVQLVESGGGLVQAGGSLRLSCAASGRIFIYNVMGWYRQAPGKERELVATISTGGTTNYADSVKGRFTISRDNAKNTVYLQMNSLKPEDTAVYYCNRGSGYWYLPAVKYDHWGQGTQVTVSS,low polyreactivity
2,QVQLVESGGGLVQAGGSLRLSCAASGRIFIYYTMGWYRQAPGKEREFVAAITYSGGSTRYADSVKGRFTISRDNAKNTVYLQMNSLKPEDTAVYYCAAKFSVRRGFDYWGQGTQVTVSS,low polyreactivity
3,QVQLVESGGGLVQAGGSLRLSCAASGRIFKAYAMGWSRQAPGKERELVAAITSTGSTYYADSVKGRFTISRDNAKNTVYLQMNSLKPEDTAVYYCNAVRYLEYDWGQGTQVTVSS,high polyreactivity
4,QVQLVESGGGLVQAGGSLRLSCAASGRIFKGYAIGWYRLAPGKERELVASITWRGGTTYYADSVKGRFTISRDNAKNTVYLQMNSLKPEDTAVYYCATTRYPRSYQEFGYWGQGTQVTVSS,high polyreactivity
5,QVQLVESGGGLVQAGGSLRLSCAASGRIFKIYAMGWYRQAPGKERELVASISWSGGRTYYADSVKGRFTISRDNAKNTVYLQMNSLKPEDTAVYYCAATFSYSSYIYDYWGQGTQVTVSS,high polyreactivity
6,QVQLVESGGGLVQAGGSLRLSCAASGRIFKIYAMGWYRQAQGKERELVAAISRGVRTYYADSVKGRFTISRDNAKNTVYLQMNSLKPEDTAVYYCAADLLISPEFYYWGQGTQVTVSS,high polyreactivity
7,QVQLVESGGGLVQAGGSLRLSCAASGRIFKKNAMGWYRQAPGKERELVADINWTGGSTYYADSVKGRFTISRDYAKNTVDLQMNSLKPEDTAVYYCAVGVYPSYRGTTFSTRRDYWGQGTQVTVSS,low polyreactivity
8,QVQLVESGGGLVQAGGSLRLSCAASGRIFKLYAMGWYRQAPGKERELVAAITRRGGSTSYADSVKGRFTISRDNAKNTVYLQMNSLKPEDTAVYYCNARSSETWHGDYWGQGTQVTVSS,high polyreactivity
9,QVQLVESGGGLVQAGGSLRLSCAASGRIFKNNAMGWYRQAPGKEREFVAAISSIGGRTYYADSVKGRFTISRDNAKHTVYLQMNSLKPEDTAVYYCAARGYTGGLWYDYWGQRTQVTVSS,high polyreactivity
10,QVQLVESGGGLVQAGGSLRLSCAASGRIFKPNAMGWYRQAPGKERELVASITSRGTSTYYADSVKGRFTISRDNAKNTVYLQMNSLKPEDTAVYYCAARPIHYPPYYYWGQGTQVTVSS,high polyreactivity
11,QVQLVESGGGLVQAGGSLRLSCAASGRIFKPYAMGWYRQAPGKERELVASISRRGGSTYYADSVKGRFTISRDNAKNTVYLQMNSLKPEDTAVYYCNASGTYISLGYDYWGQGTQVTVSS,high polyreactivity
12,QVQLVESGGGLVQAGGSLRLSCAASGRIFKRNAMGWYRQAPGKDTELVAGISSSGGSTYYADSVKGRFTISRDNAKNTVYLQMNSLKPEDTAVYYCAAVGYGLRPSYDYWGQGTQVTVSS,high polyreactivity
13,QVQLVESGGGLVQAGGSLRLSCAASGRIFKRNAMGWYRQAPGKERELVAAISSRVGRTYYADSVKGRFTISRDNAKNTVYLQMNSLKPEDTAVYYCAADTYTYYDYDYWGQGTQVTVSS,high polyreactivity
14,QVQLVESGGGLVQAGGSLRLSCAASGRIFKRYDMGWYRQAPGKERELVAAINRSGGSTYYADSVKGRFTISRDNAKNTVYLQMNSLKPEDTAVYYCAARYRYDGRYDYWGQGTQVTVSS,high polyreactivity
15,QVQLVESGGGLVQAGGSLRLSCAASGRIFKRYTMGWYRQAPGKERELVAGITFSGGSTYYADSVKGRFTISRDNAKNTVYLQMNSLKPEDTAVYDCNARVPPQGWGPWKAFDYWGQGTQVTVSS,low polyreactivity
16,QVQLVESGGGLVQAGGSLRLSCAASGRIFKSYVMGWYRQAPGKERELVAAISITGGSTYYADSVKGRFTISRDNAKNTVYLQMNSLKPEDTAVYYCAAEWFGSVQPAYDYWGQGTQVTVSS,high polyreactivity

row,Sequence,polyreactivity (PSR sort gate)
1,QVQLVESGGGLVQAGGSLRLSCAASGRIFKTNAMGWDRQGPGKERELVAGITGRSGSSYYADSVKGRFTISRDIAMNTVYLQMNSLKPEDTAVYYCAAPLYGRYSYGYWGQGNQVTVSS,high polyreactivity
2,QVQLVESGGGLVQAGGSLRLSCAASGRIFKVNAMGWYRQAPGKERELVAAITRGGRTYADSVKGRFTISRDNAKNTVYLQMNSLKPEDTAVYYCAADVLEGWFKRYYYWGQGTQVTVSS,high polyreactivity
3,QVQLVESGGGLVQAGGSLRLSCAASGRIFKVYAMGWYRQAPGKERELVAAITSRGGSTYYADSVKGRFTISRDNAKNTVYLQMNSLKPEDTAVYYCAAARGLPSNKYYYWGQGTQVTVSS,high polyreactivity
4,QVQLVESGGGLVQAGGSLRLSCAASGRIFKVYAMGWYRQAPGKERELVATISRGGSTYYADSVKGRFTISRDNAKNTVYLQMNSLKPEDTAVYYCAKQRERYYWFGAWSYDYWGQGTQLTVSS,low polyreactivity
5,QVQLVESGGGLVQAGGSLRLSCAASGRIFKYHAMGWYRQAPGKERELVAAITWGGGGTYYADSVKGRFTISRDNAKNTVYLQMNSLIPEDTAVYYCNTERWGTGKLRYNYWGPGTQVTVSS,low polyreactivity
6,QVQLVESGGGLVQAGGSLRLSCAASGRIFKYNAMGWYRQAPGKEREFVARITSGGRTYYADSVKGRFTISRDNAKNTVYLQMNSLKPEDTAVYYCNAEDVRYWVRGYRMGYWGQGTQVTVSS,high polyreactivity
7,QVQLVESGGGLVQAGGSLRLSCAASGRIFKYYAKGWYRQAPGKERELVAAISWSGGRTYYADSVKGRFTISRDNAKTTVYLQMNSLKPEDTAVYDCNAASLRYSYTLFDSWGQGTQVTVSS,high polyreactivity
8,QVQLVESGGGLVQAGGSLRLSCAASGRIFKYYAMGWYRQAPGKERELVAAISRSGGSTYYADSVKGRFSISRDNAKNTVYLQMNSLKPEDTAVYYCAAGYKQATYDRIRTAYGYWGQGTQVTVSS,high polyreactivity
9,QVQLVESGGGLVQAGGSLRLSCAASGRIFKYYAMGWYRQAPGKERELVAAITWSGGNTYYADSVKGRFTISRDNAKNTVYLQMNSLKPEDTAVYYCAREVYYPIRQYNYWGQGTQVTVSS,high polyreactivity
10,QVQLVESGGGLVQAGGSLRLSCAASGRIFKYYTMGWSRQAPGKERELVAAISRDDSTNYADSVKGRFTISRDNAKNTVYLQMNSLKPEDTAVYYCAKGYHQYAGFYYWGQGTQVTVSS,high polyreactivity
11,QVQLVESGGGLVQAGGSLRLSCAASGRIFKYYVMGWYRQAPGKEREFVAAISGRGGRTYYADSVKGRFTISRDNAKNTVYLQMNSLKPEDTAVYYCATERQERGPLGYNYWGLGTQVTVSS,high polyreactivity
12,QVQLVESGGGLVQAGGSLRLSCAASGRIFKYYVMGWYRQAPGKESELVAAISSGSGSTYYADSVKGRFTISRDNAKNTVYLQMNSLKPEDTAVYYCNALSSWRRTYGSRYDYWGQGTQVTVSS,high polyreactivity
13,QVQLVESGGGLVQAGGSLRLSCAASGRIFLDNTMGGYRQATGKERELVATISSGASTNYADSVKGRFTISRDNAKNTVYLQMNSLKPEDTGVYYCNARVGGYPLWYKKYYYWGQGTQVNVSS,low polyreactivity
14,QVQLVESGGGLVQAGGSLRLSCAASGRIFLFYAMGWYRQAPGKERELVAAISIGSTDYADSVKGRFTISRDNAKNTVYLQMNSLKPEDTAVYYCAADFIITYDEYDYWGQGTQVTVSS,high polyreactivity
15,QVQLVESGGGLVQAGGSLRLSCAASGRIFLGNAMGWYRQAPGKERELVAAIDASGGSTYYADSVKGRFTISRDNAKNTVYLQMNSLKPEDTAVYYCNAEPRYYSGGHGYDYWGQGTQVTVSS,low polyreactivity
16,QVQLVESGGGLVQAGGSLRLSCAASGRIFLGNAMGWYRQAPGNERELVADITTDGSTYYADSVKGRFTISRDNAKNTVYLQMNSLKPEVTAVYYCAAGEHPSFRSSYKYDYWGQGTQVTVSS,low polyreactivity
